Values joined by “and” are separate entries in the source; they are usually repeats but may differ in a detail not shown here. Equal values may be shown once.
Settings: Helicobacter pylori (strain ATCC 700392 / 26695); pH 7.2; Thermal; CD; Tris-HCl 20 mM; transition: 2; reversible: yes; whole UniProt chain shown

B1: Arginase wild type, O25949 (protein)
chain: MILVGLEAELGASKRGTDKGVRRLREALSATHGDVIKGMQTITQERCVLYKEFRYAKNFEDYYLFCKENLIPCMKEVFEKKEFPLILSSEHANMFGIFQAFRSVHKDKKIGILYLDAHADIHTAYDSDSKHIHGMPLGMVLNRVRSGFNRMSESEEKAWQKLCSLGLEKGGLEIDPKCLVYFGVRSTEQSERDVIRELQIPLFSVDAIRENMQEVVQKTKESLKAVDIIYLSLDLDIMDGKLFTSTGVRENNGLSFDELKQLLGLLLESFKDRLKAVEVTEYNPTVSIKHNNEEEKQVLEILDLIINSCKIKDKKHSFARSY
In the case of B1, the Tm is reported as 70 °C and 68 °C.

Source: FireProtDB (doi:10.1021/bi301421v)
